Results on three substances are retold here after US20170122944A1.

Assay [1] deals with Factor D in C1q-depleted human serum (human) (UniProt P00746). Briefly: cell-based or functional assay.
Assay [2] concerns the target recombinant human Factor D (human) (UniProt P00746). In words: cell-based or functional assay.

In assay [1], Lampalizumab (Fab) showed a Hemolytic Mean (rabbit erythrocyte lysis assay; Thermal control) of 96 and a Hemolytic Mean (rabbit erythrocyte lysis assay; Unstressed control) of 81. In addition, in assay [2], the TR-FRET Activity (Thermal control) amounted to 103% and the TR-FRET Activity (Unstressed control) is 93%.
In assay [1], “Lampalizumab subjected to oxidation conditions (30 mM AAPH) (Fab)” returned a Hemolytic Mean (rabbit erythrocyte lysis assay; Oxidized, 30 mM AAPH) of 82. Further, the TR-FRET Activity (Oxidized, 30 mM AAPH) in assay [2] was 63%.
In assay [1], “Lampalizumab subjected to thermal stress (Fab)” displayed a Hemolytic Mean (rabbit erythrocyte lysis assay; Thermal Stress) of 102. Besides, the TR-FRET Activity (Thermal Stress) in assay [2] is 86%.
